This note sets out measurements from paper PMC6007489 (Nucleic Acids Research, 2018).

In one assay the target is Msh2–Msh3 (S. cerevisiae, UniProt P25847 1-964; P25336 1-1018). In words: far-Western, overlay or dot blot.
For another assay, the target named is T1, 6xHis–Saw1 (S. cerevisiae, UniProt P39735 1-261).
T1 sequence (looked up): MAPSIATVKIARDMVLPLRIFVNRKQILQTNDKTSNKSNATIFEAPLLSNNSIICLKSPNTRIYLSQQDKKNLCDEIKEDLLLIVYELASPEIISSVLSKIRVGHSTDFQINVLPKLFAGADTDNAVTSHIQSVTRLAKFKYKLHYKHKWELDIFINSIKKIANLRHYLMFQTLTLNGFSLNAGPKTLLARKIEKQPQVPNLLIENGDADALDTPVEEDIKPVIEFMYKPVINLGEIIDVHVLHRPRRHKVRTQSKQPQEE
In words: co-IP.

Chain of Msh2–Msh3 (P25847 whole entry, chain 1 of 2): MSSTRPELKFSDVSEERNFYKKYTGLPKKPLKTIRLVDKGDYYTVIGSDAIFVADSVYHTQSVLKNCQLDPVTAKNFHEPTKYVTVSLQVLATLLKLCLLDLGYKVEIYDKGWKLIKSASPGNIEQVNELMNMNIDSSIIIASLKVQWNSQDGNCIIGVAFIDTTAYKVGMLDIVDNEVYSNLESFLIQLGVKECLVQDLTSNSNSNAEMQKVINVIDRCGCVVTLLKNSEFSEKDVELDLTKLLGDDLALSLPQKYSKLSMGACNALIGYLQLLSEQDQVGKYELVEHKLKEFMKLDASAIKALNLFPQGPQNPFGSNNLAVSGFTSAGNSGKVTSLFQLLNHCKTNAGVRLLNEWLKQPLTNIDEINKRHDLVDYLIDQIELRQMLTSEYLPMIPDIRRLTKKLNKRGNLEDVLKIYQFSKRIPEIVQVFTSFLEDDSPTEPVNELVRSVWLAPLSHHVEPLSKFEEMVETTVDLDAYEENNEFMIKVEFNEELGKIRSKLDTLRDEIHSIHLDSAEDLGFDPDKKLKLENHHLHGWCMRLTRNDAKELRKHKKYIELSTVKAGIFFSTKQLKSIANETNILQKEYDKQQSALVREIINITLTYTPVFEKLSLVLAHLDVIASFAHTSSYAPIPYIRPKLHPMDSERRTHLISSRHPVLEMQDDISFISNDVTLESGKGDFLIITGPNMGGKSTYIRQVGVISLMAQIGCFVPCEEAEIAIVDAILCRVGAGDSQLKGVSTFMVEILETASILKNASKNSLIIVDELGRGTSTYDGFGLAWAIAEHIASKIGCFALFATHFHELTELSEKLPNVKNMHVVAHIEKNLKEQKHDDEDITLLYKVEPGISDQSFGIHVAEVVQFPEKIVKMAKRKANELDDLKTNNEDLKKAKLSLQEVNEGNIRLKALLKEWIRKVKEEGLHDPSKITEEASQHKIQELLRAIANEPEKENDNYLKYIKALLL
Chain of Msh2–Msh3 (P25336 whole entry, chain 2 of 2): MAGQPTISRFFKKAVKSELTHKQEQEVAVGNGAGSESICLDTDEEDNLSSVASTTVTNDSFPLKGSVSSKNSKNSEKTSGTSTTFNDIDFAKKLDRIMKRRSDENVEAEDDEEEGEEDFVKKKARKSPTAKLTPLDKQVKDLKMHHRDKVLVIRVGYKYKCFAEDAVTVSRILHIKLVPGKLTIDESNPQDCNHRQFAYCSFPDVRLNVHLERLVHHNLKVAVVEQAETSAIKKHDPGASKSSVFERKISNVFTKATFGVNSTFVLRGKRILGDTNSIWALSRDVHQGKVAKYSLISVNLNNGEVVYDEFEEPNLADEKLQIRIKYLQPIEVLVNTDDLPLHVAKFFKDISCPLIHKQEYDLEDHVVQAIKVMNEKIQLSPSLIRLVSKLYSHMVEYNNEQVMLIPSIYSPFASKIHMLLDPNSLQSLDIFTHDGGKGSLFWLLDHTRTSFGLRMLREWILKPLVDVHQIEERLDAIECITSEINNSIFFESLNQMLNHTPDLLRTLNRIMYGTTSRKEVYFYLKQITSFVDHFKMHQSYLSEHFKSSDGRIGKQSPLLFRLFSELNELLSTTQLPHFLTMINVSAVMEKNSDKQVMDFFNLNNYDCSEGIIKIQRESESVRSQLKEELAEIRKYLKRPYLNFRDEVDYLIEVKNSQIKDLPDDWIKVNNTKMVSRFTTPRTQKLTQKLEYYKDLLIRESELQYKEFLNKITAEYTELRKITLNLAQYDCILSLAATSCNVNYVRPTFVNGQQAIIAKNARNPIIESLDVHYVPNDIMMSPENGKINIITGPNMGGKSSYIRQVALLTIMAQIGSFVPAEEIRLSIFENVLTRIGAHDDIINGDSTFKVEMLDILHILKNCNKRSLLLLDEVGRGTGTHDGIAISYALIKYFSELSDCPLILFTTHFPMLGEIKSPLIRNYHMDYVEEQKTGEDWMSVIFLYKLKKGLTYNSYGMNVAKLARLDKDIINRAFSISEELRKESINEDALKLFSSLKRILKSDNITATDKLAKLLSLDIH

B1: His–rad1R218A–Rad10 (complex, S. cerevisiae)
chain 1: MSQLFYQGDSDDELQEELTRQTTQASQSSKIKNEDEPDDSNHLNEVENEDSKVLDDDAVLYPLIPNEPDDIETSKPNINDIRPVDIQLTLPLPFQQKVVENSLITEDALIIMGKGLGLLDIVANLLHVLATPTSINGQLKRALVLVLNAKPIDNVRIKEALEELSWFSNTGKDDDDTAVESDDELFERPFNVVTADSLSIEKRRKLYISGGILSITSAILIVDLLSGIVHPNRVTGMLVLNADSLRHNSNESFILEIYRSKNTWGFIKAFSEAPETFVMEFSPLRTKMKELRLKNVLLWPRFRVEVSSCLNATNKTSHNKVIEVKVSLTNSMSQIQFGLMECLKKCIAELSRKNPELALDWWNMENVLDINFIRSIDSVMVPNWHRISYESKQLVKDIRFLRHLLKMLVTSDAVDFFGEIQLSLDANKPSVSRKYSESPWLLVDEAQLVISYAKKRIFYKNEYTLEENPKWEQLIHILHDISHERMTNHLQGPTLVACSDNLTCLELAKVLNASNKKRGVRQVLLNKLKWYRKQREETKKLVKEVQSQDTFPENATLNVSSTFSKEQVTTKRRRTRGASQVAAVEKLRNAGTNVDMEVVFEDHKLSEEIKKGSGDDLDDGQEENAANDSKIFEIQEQENEILIDDGDAEFDNGELEYVGDLPQHITTHFNKDLWAEHCNEYEYVDRQDEILISTFKSLNDNCSLQEMMPSYIIMFEPDISFIRQIEVYKAIVKDLQPKVYFMYYGESIEEQSHLTAIKREKDAFTKLIRENANLSHHFETNEDLSHYKNLAERKLKLSKLRKSNTRNAGGQQGFHNLTQDVVIVDTREFNASLPGLLYRYGIRVIPCMLTVGDYVITPDICLERKSISDLIGSLQNNRLANQCKKMLKYYAYPTLLIEFDEGQSFSLEPFSERRNYKNKDISTVHPISSKLSQDEIQLKLAKLVLRFPTLKIIWSSSPLQTVNIILELKLGREQPDPSNAVILGTNKVRSDFNSTAKGLKDGDNESKFKRLLNVPGVSKIDYFNLRKKIKSFNKLQKLSWNEINELINDEDLTDRIYYFLRTEKEEQEQESTDENLESPGKTTDDNALHDHHNDVPEAPV
chain 2: MNNTDPTSFESILAGVAKLRKEKSGADTTGSQSLEIDASKLQQQEPQTSRRINSNQVINAFNQQKPEEWTDSKATDDYNRKRPFRSTRPGKTVLVNTTQKENPLLNHLKSTNWRYVSSTGINMIYYDYLVRGRSVLFLTLTYHKLYVDYISRRMQPLSRNENNILIFIVDDNNSEDTLNDITKLCMFNGFTLLLAFNFEQAAKYIEYLNL
Consider B1, for which the binding result with Msh2–Msh3 is “binds”. Besides, the “fold immunoprecipitated relative to His–Rad1–Rad10” value with 6xHis–Saw1 was approximately 3 fold.
